In patent US20240247079A1 (NANJING ANJI BIOLOGICAL TECHNOLOGY, published 2024):

T1: HMMW micropeptide (recombinant, purified from Escherichia coli BL21) (human)
T1 construct: also called purified HMMW micropeptide; human HMMW micropeptide
T1 peptide: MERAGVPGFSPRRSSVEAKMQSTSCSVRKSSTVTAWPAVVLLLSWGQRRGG

B1: Anti-HMMW antibody-1 (antibody, V domains shown)
VH: EVKLEESGGGLVQPGGSMKFSCVASGFTFSNYWMNWVRQSPERGLEWVAEIKLKSNNYATLYAESVKGRFTISRDDSKSSVYLQVNNLRAEDTGIYYCITEIFDYWGQGTTLTVSS
VL: QAVVTQESALTTSPGETVTLTCRSSTGAVTTSNYATWVQEKPDHLFTGLIVGANNRAPGVPARFSGSLIGDKAALTITGAQTEDEAIYFCALWFLNHWVFGGGTKLTVLG
notes: Mouse monoclonal antibody from a BALB/c x SP2/0 hybridoma; also called anti-HMMW-1 antibody
B2: Anti-HMMW antibody-7 (antibody, V domains shown)
VH: EVKLEESGGGLVQPGGSKKLSCFASGFTFSNYWMNWVRQSPEKGLEWVAEIQLKSNNYATHYAESVKGRFTISRDDSKSSVYLQMNNLRAEDTGIYYCTTEIFDFWGQGTTLTVSS
VL: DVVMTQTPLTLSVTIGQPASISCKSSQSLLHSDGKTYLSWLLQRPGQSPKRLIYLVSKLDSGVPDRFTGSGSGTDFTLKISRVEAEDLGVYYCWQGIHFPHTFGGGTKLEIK
notes: Mouse monoclonal antibody from a BALB/c x SP2/0 hybridoma; also called anti-HMMW-7 antibody
B3: Anti-HMMW antibody-8 (antibody, V domains shown)
VH: EVKLEESGGGLVQPGGSMKVSCVASGFTFSNYWMNWVRQSPEKGLEWVAEIKLKSDIDATNYAESVKGRFTISRDDSKSSVSLQMNNLRAEDTGIYYCSTEIFDYWGQGTTLTVSS
VL: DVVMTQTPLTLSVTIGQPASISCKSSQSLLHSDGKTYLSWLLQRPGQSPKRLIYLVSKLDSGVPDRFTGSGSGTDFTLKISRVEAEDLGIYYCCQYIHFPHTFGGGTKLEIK
notes: Mouse monoclonal antibody from a BALB/c x SP2/0 hybridoma; also called anti-HMMW-8 antibody
B4: Anti-HMMW antibody-5 (antibody, V domains shown)
VH: EVKLEESGGGLVQPGGSMKLSCVVSGFTFSNYWMNWVRQSPERGLEWVAEIKLKSNNYATLYAASVKGRFTISRDDSKSSVYLQVNNLRTEDTGIYYCITEIFDYWGQGTTLTVSS
VL: QTVVTQESALTTSPGETVTLTCRSSTGSVTTSNYATWVQEKPDHLFTGLIVGANNRAPGVPARFSGSLIGDKAALTITGAQTEDEAIYFCALWFIDHWVFGGGTKLTVL
notes: Mouse monoclonal antibody from a BALB/c x SP2/0 hybridoma; also called anti-HMMW-5 antibody
B5: Anti-HMMW antibody-3 (antibody, V domains shown)
VH: EVKLEESGGGLVQPGGSMKLSCVASGFTFSDYWMNWVRQSPEKGLEWLTEIRLKSDNYATHYAESVKGKFTISRDDSKSTVYLQMNNLRAEDTGIYYCSVETMDFWGQGTSVTVSS
VL: QAVVTQESALTTSPGETVTLTCRSSIGAVTTNNYANWVQEKPDRLFTGLIRGTNNRVPGVPARFSGSLIGDKAALTITGAQTEDEAIYFCALWYSNHWVFGGGTKLTVL
notes: Mouse monoclonal antibody from a BALB/c x SP2/0 hybridoma; also called anti-HMMW-3 antibody
B6: Anti-HMMW antibody-4 (antibody, V domains shown)
VH: EVKLEESGGGLVQPGGSMKLSCVASGFTFSDYWMNWVRQSPEKGLEWLTEIRLKSNNYLTHYAESVKGRFTISRDDSKSSVYLQMNNLRAEDTGIYYCSVETMDYWGQGISVTVSS
VL: QAVVTQESALTTSSGETVTLTCRSSTGAVTTSNYANWVQEKPDHLFTGLIRGTNNRAPGVPARFSGSLIGDKAALTITGAQTEDEAIYFCALWYSNHWVFGGGTKLTVL
notes: Mouse monoclonal antibody from a BALB/c x SP2/0 hybridoma; also called anti-HMMW-4 antibody
B7: Anti-HMMW antibody-2 (antibody, V domains shown)
VH: EVKLEESGGGLVQPGGSMKVSCVGSGFTFSNYWMNWVRQSPEKGLEWVAEIRLKSNNYATHYAESVKGRFTISRDDSKRSVYLQMNNLRVEDTGIYYCTTEAVDYWGQGTSVTVSS
VL: DIVMTQAAFSNPVTLGTSASISCRSSKSLLHSNGITYLYWYLQKPGQSPQLLIYQMSNLASGVPDRFSSSGSGTDFTLRISRVEAEDVGVYYCAQNLELPTFGGGTKLEIKR
notes: Mouse monoclonal antibody from a BALB/c x SP2/0 hybridoma; also called anti-HMMW-2 antibody
B8: Anti-HMMW antibody-6 (antibody, V domains shown)
VH: EVKLEESGGGLVQPGGSMKLSCVASGFTFSNYWMNWVRQSPEKGLEWVAEIRLKSNNYATHYAESVTGRFTISRDDSKSSVYLQMNNLRAEDTGIYYCTLEAVDYWGQGTSVTVSS
VL: DIVMTQAAFSNPVTLGTSASISCRSSKSLLHSDGITYLYWFLQKPGQSPQLLIYQMSNLASGVPDRFSSSGSGTDFTLRISRVEAEDVGVYYCAQNLELPTFGGGTKLEIK
notes: Mouse monoclonal antibody from a BALB/c x SP2/0 hybridoma; also called anti-HMMW-6 antibody

Tests used:
[1] = target: T1, HMMW micropeptide (recombinant, …); experiment: indirect ELISA, HMMW micropeptide coated at 1 ug/ml, antibody dilution 1:3.125K
Procedure: (§1) The antigen coating concentration of the HMMW micropeptide was 1 μg/ml and 5% milk PBS-T was used for sealing. The dilution multiples of eight antibodies were: 1: 3.125 K/6.25 K/12.5 K/25 K/5O K/100 K. The primary antibodies were incubated at 37° C. for 1 h and the secondary antibodies were incubated at 37° C. for 45 min. A color developing solution was added, reaction was performed at 37° C. for 15 min, the reaction was terminated, and the value was read. It can be seen from Table 2 below that the titers of the eight antibodies all reached 1: 100 K, meeting the requirements for subsequent antigen detection.

[2] = target: T1, HMMW micropeptide (recombinant, …); experiment: indirect ELISA, HMMW micropeptide coated at 1 ug/ml, antibody dilution 1:6.25K
Procedure: as §1

[3] = target: T1, HMMW micropeptide (recombinant, …); experiment: indirect ELISA, HMMW micropeptide coated at 1 ug/ml, antibody dilution 1:100K
Procedure: as §1

[4] = target: T1, HMMW micropeptide (recombinant, …); experiment: indirect ELISA, HMMW micropeptide coated at 1 ug/ml
Procedure: as §1

[5] = target: T1, HMMW micropeptide (recombinant, …); experiment: indirect ELISA, HMMW micropeptide coated at 1 ug/ml, antibody dilution 1:12.5K
Procedure: as §1

[6] = target: T1, HMMW micropeptide (recombinant, …); experiment: indirect ELISA, HMMW micropeptide coated at 1 ug/ml, antibody dilution 1:50K
Procedure: as §1

[7] = target: T1, HMMW micropeptide (recombinant, …); experiment: indirect ELISA, HMMW micropeptide coated at 1 ug/ml, antibody dilution 1:25K
Procedure: as §1

Binder	ELISA reading at antibody dilution 1:3.125K [1]	ELISA reading at antibody dilution 1:6.25K [2]	ELISA reading at antibody dilution 1:100K [3]	titer [4]	ELISA reading at antibody dilution 1:12.5K [5]	ELISA reading at antibody dilution 1:50K [6]	ELISA reading at antibody dilution 1:25K [7]
B1	2.85	2.59	1.14	≥ 100000 dilution (1:x)	2.38	1.85	2.13
B2	2.4	2.26	1.7	≥ 100000 dilution (1:x)	2.27	2.14	2.15
B3	3.45	3.16	2.79	≥ 100000 dilution (1:x)	3.11	2.96	2.97
B4	2.92	2.81	2	≥ 100000 dilution (1:x)	2.56	2.31	2.48
B5	3.57	3.4	2.54	≥ 100000 dilution (1:x)	3.22	2.92	3.04
B6	3.52	3.45	2.57	≥ 100000 dilution (1:x)	3.35	2.81	3.13
B7	3.33	3.35	2.73	≥ 100000 dilution (1:x)	3.23	2.94	3.19
B8	3.37	3.19	2.16	≥ 100000 dilution (1:x)	2.96	2.2	2.55
